Source: paper PMC5333127, “RD26 mediates crosstalk between drought and brassinosteroid signalling pathways” (Nature Communications, 2017)

T1: GST-tagged RD26 DNA-binding/dimerization domain (aa 1-140) (Arabidopsis, UniProt Q93VY3 1-140)
T1 construct: also called RD26 (1-140); source: recombinant protein, purified; pET-42a (Novagen)
T1 sequence (looked up): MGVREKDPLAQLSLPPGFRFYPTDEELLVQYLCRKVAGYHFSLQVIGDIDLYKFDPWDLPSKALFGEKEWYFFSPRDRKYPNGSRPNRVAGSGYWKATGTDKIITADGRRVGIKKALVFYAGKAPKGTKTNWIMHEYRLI

T2: MBP-BES1, full-length BES1 (BRI1 EMS SUPPRESSOR 1) (Arabidopsis, UniProt Q9LN63 1-335)
T2 construct: BES1 (BRI1 EMS SUPPRESSOR 1), BES1/BZR1 family transcription factor of Arabidopsis, full length; also called BES1 FL; source: recombinant protein, purified; pETMALc-H
T2 sequence (looked up): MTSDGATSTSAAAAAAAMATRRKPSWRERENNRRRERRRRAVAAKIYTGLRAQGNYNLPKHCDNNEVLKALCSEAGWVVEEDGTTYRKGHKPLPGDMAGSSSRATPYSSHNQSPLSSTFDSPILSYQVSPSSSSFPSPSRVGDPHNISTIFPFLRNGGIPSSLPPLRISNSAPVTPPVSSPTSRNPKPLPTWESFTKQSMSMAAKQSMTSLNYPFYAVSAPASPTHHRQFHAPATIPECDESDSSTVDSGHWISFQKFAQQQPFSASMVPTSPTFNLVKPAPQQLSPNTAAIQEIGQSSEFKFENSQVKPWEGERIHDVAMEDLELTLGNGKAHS

T3: RD26 (ANAC072) (Arabidopsis thaliana, UniProt Q93VY3 1-297)
T3 sequence: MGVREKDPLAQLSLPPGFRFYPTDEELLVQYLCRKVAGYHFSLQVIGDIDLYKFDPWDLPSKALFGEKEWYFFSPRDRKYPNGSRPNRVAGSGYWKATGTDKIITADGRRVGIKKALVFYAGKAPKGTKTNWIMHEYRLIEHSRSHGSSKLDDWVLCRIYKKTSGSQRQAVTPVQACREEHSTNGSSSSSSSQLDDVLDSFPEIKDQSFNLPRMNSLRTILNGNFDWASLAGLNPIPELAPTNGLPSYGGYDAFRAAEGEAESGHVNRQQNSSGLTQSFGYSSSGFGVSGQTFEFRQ


Key:
BES1 = BES1 (Arabidopsis thaliana, UniProt Q9LN63 1-335); assay: EMSA; 25 mM HEPES-KOH pH 8.0, 1 mM DTT, 50 mM KCl, 10% glycerol, 20 μl, about 0.2 ng probe, 40 min on ice; 5% native PAGE in 1x TGE; conditions: protein: recombinant; chain copies: 2; label: 32P 5' end; blunt
BES1;RD26 (ANAC072) [1] = target: T4, BES1;RD26 (ANAC072) (Arabidopsis thaliana;Arabidopsis …, UniProt Q9LN63;Q93VY3 1-335;1-297, |); assay: EMSA; stronger than either protein alone; proposed heterodimer; 25 mM HEPES-KOH pH 8.0, 1 mM DTT, 50 mM KCl, 10% glycerol, 20 μl, about 0.2 ng probe, 40 min on ice; 5% native PAGE in 1x TGE; conditions: protein: recombinant;recombinant; copies: 1;1; label: 32P 5' end; blunt
[2] = target: T1, GST-tagged RD26 …; assay: pull-down; GST pull-down; GST-tagged RD26 (full length or 1-140) or GST as bait, MBP-tagged BES1 (full length or 1-89) as prey; MBP-BES1 detected by anti-MBP antibody; 20% input shown; conditions: both partners purified
BES1;RD26 (ANAC072) [3] = target: T4, BES1;RD26 (ANAC072); assay: EMSA; 25 mM HEPES-KOH pH 8.0, 1 mM DTT, 50 mM KCl, 10% glycerol, 20 μl, about 0.2 ng probe, 40 min on ice; 5% native PAGE in 1x TGE; conditions: protein: recombinant;recombinant; copies: 1;1; label: 32P 5' end; blunt
[4] = target: T2, MBP-BES1, full-length BES1 (BRI1 EMS …); assay: pull-down; GST pull-down; GST-tagged RD26 (full length or 1-140) or GST as bait, MBP-tagged BES1 (full length or 1-89) as prey; MBP-BES1 detected by anti-MBP antibody; 20% input shown; conditions: both partners purified
RD26 (ANAC072) = target: T3, RD26 (ANAC072); assay: EMSA; 25 mM HEPES-KOH pH 8.0, 1 mM DTT, 50 mM KCl, 10% glycerol, 20 μl, about 0.2 ng probe, 40 min on ice; 5% native PAGE in 1x TGE; conditions: protein: recombinant; chain copies: 2; label: 32P 5' end; blunt
BES1;RD26 (ANAC072) [5] = target: T4, BES1;RD26 (ANAC072); assay: EMSA; synergistic; proposed heterodimer; 25 mM HEPES-KOH pH 8.0, 1 mM DTT, 50 mM KCl, 10% glycerol, 20 μl, about 0.2 ng probe, 40 min on ice; 5% native PAGE in 1x TGE; conditions: protein: recombinant;recombinant; copies: 1;1; label: 32P 5' end; blunt

Binder	binding result (BES1)	binding result (BES1;RD26 (ANAC072) [3])	binding result (RD26 (ANAC072))	further results
At4g18010 BRRE WT (dsDNA) DNA 1: AAACCGAAAACACGTGTGAGAAAGAAGAAA DNA 2: TTTCTTCTTTCTCACACGTGTTTTCGGTTT	binds	–	–	binding result (BES1;RD26 (ANAC072) [1]): binds
MBP-tagged BES1 DNA-binding/dimerization domain (aa 1-89) (domain or fragment, Arabidopsis, UniProt Q9LN63 1-89, looked up, also called BES1 (1-89); source: recombinant protein, purified; pETMALc-H) MTSDGATSTSAAAAAAAMATRRKPSWRERENNRRRERRRRAVAAKIYTGLRAQGNYNLPKHCDNNEVLKALCSEAGWVVEEDGTTYRKG	–	–	–	binding result [2]: binds
At4g00360 E-box MU (dsDNA) DNA 1: ATTACCTAACTATAAAAAAATAATGTGTTC DNA 2: GAACACATTATTTTTTTATAGTTAGGTAAT	–	no binding	–	–
GST-RD26, full-length RD26 (RESPONSIVE TO …ON 26) (natural protein, Arabidopsis, UniProt Q93VY3 1-297, looked up, RD26 (ANAC072), NAC family transcription factor of Arabidopsis, full length; also called ANAC072; RD26 FL; source: recombinant protein, purified; pET-42a (Novagen)) MGVREKDPLAQLSLPPGFRFYPTDEELLVQYLCRKVAGYHFSLQVIGDIDLYKFDPWDLPSKALFGEKEWYFFSPRDRKYPNGSRPNRVAGSGYWKATGTDKIITADGRRVGIKKALVFYAGKAPKGTKTNWIMHEYRLIEHSRSHGSSKLDDWVLCRIYKKTSGSQRQAVTPVQACREEHSTNGSSSSSSSQLDDVLDSFPEIKDQSFNLPRMNSLRTILNGNFDWASLAGLNPIPELAPTNGLPSYGGYDAFRAAEGEAESGHVNRQQNSSGLTQSFGYSSSGFGVSGQTFEFRQ	–	–	–	binding result [4]: binds
At4g18010 BRRE MU (dsDNA) DNA 1: AAACCGAAAACATTTTTTAGAAAGAAGAAA DNA 2: TTTCTTCTTTCTAAAAAATGTTTTCGGTTT	no binding	no binding	no binding	–
At4g00360 E-box WT (dsDNA) DNA 1: ATTACCTAACTATACATGTGTAATGTGTTC DNA 2: GAACACATTACACATGTATAGTTAGGTAAT	binds	–	binds	binding result (BES1;RD26 (ANAC072) [5]): binds
